Results on seven molecules are retold here after patent publication US20240327497A1.

Test [1] has as its target canine FcRn (FcRn large subunit with canine beta-2-microglobulin) (canine). Description: SPR pH 5.5, SASA-Fc captured on BSA, FcRn 400 nM.
Test [2] shares this target. Description: SPR pH 5.5, SASA-Fc captured on BSA, FcRn 200 nM.
Test [3] shares this target. Description: SPR pH 5.5, SASA-Fc captured on BSA, FcRn 200 nM. This is another data set of the same source.
Test [4] has the same target. Kind of test: SPR pH 5.5, SASA-Fc captured on BSA, FcRn 200 nM. The source holds these as a separate data set.
The target is the same in test [5]. Description: SPR pH 5.5, SASA-Fc captured on BSA, FcRn 200 nM. This is another data set of the same source.
The target is the same in test [6]. Kind of test: SPR pH 5.5, SASA-Fc captured on BSA, FcRn 200 nM. This is another data set of the same source.
The target is the same in test [7]. Kind of test: SPR pH 6.0, IgG coupled to CM5, FcRn 200-3200 nM.
Test [8] has the same target. Description: SPR pH 5.5, SASA-Fc captured on BSA, FcRn 100-800 nM.

Substitutions are numbered along the chain they refer to. Names may count otherwise. “And” between values parts separate entries of the source, which are not always exact repeats. Identical values can stand only once.

B1: canine IgGB Fc (CH2-CH3) E380A with N-terminal SASA tag (Fc fusion, part only; not given: SASA tag, not shown: another chain or arm of the molecule; small tags and cut ends)
Fc: APEMLGGPSVFIFPPKPKDTLLIARTPEVTCVVVDLDPEDPEVQISWFVDGKQMQTAKTQPREEQFNGTYRVVSVLPIGHQDWLKGKQFTCKVNNKALPSPIERTISKARGQAHQPSVYVLPPSREELSKNTVSLTCLIKDFFPPDIDVAWQSNGQQEPESKYRTTPPQLDEDGSYFLYSKLSVDKSRWQRGDTFICAVMHEALHNHYTQESLSHSPGK
Turning to B1, in test [1], the Kd (in general, the equilibrium constant for the complex coming apart) was 618 nM and 747 nM; the WT KD Avg/Variant KD is 0.76 and 0.92; the koff – broadly, the first-order rate constant of dissociation – is 0.369 s⁻¹ and 0.18 s⁻¹; the kon (as a rule, the second-order rate constant of association) is 598000 M⁻¹ s⁻¹ and 241000 M⁻¹ s⁻¹. In test [2], the Kd was 1320 nM and 1570 nM; the koff was 0.223 s⁻¹ and 0.239 s⁻¹; the kon was 168000 M⁻¹ s⁻¹ and 152000 M⁻¹ s⁻¹.

B2: canine IgGB Fc (CH2-CH3) L252M with N-terminal SASA tag (Fc fusion, part only; not given: SASA tag, not shown: another chain or arm of the molecule; small tags and cut ends)
Fc: B1 Fc with L22M, A150E
B2: in test [3], the Kd is 869 nM and 774 nM; the koff is 0.168 s⁻¹ and 0.169 s⁻¹; the kon was 193000 M⁻¹ s⁻¹ and 218000 M⁻¹ s⁻¹.

B3: canine IgGB Fc (CH2-CH3) A254T with N-terminal SASA tag (Fc fusion, part only; not given: SASA tag, not shown: another chain or arm of the molecule; small tags and cut ends)
Fc: B1 Fc with A24T, A150E
Turning to B3, in test [4], the equilibrium dissociation constant (Kd) is 2290 nM and 1340 nM; the koff was 0.375 s⁻¹ and 0.433 s⁻¹; the kon is 163000 M⁻¹ s⁻¹ and 323000 M⁻¹ s⁻¹.

B4: canine IgGB Fc (CH2-CH3) Q311V with N-terminal SASA tag (Fc fusion, part only; not given: SASA tag, not shown: another chain or arm of the molecule; small tags and cut ends)
Fc: B1 Fc with Q81V, A150E
With B4, in test [5], the Kd is 372 nM and 439 nM; the koff is 0.566 s⁻¹ and 0.696 s⁻¹; the kon is 1.52e+06 M⁻¹ s⁻¹ and 1.59e+06 M⁻¹ s⁻¹.

B5: canine IgGB Fc (CH2-CH3) D378V with N-terminal SASA tag (Fc fusion, part only; not given: SASA tag, not shown: another chain or arm of the molecule; small tags and cut ends)
Fc: B1 Fc with D148V, A150E
Regarding B5, in test [6], the Kd is 693 nM and 873 nM; the koff is 0.159 s⁻¹ and 0.16 s⁻¹; the kon was 229000 M⁻¹ s⁻¹ and 184000 M⁻¹ s⁻¹.

B6: anti-NGF canine IgGB antibody, Fc variant A426H + N434R (antibody, part only; not given: Anti-NGF variable domains, not shown: another chain or arm of the molecule; small tags and cut ends)
Fc: B1 Fc with A150E, A198H, N206R
In test [7], B6 displayed a Kd of 2480 nM, a koff of 0.264 s⁻¹ and an on-rate constant (kon) of 107000 M⁻¹ s⁻¹.

B7: canine IgGB Fc (CH2-CH3) L252Y with N-terminal SASA tag (Fc fusion, part only; not given: SASA tag, not shown: another chain or arm of the molecule; small tags and cut ends)
Fc: B1 Fc with L22Y, A150E
Turning to B7, in test [3], the Kd was 98.7 nM and 114 nM; the koff was 0.0397 s⁻¹ and 0.041 s⁻¹; the kon is 402000 M⁻¹ s⁻¹ and 358000 M⁻¹ s⁻¹. In test [8], this molecule had a Kd of 173 nM, a koff of 0.0476 s⁻¹ and a kon of 275000 M⁻¹ s⁻¹.
